Target: flag-tagged Cyclin D1 (UniProt P24385 1-295)
Experiment: cell-based or functional assay

flag-tagged Cyclin D1, sequence (P24385 whole entry): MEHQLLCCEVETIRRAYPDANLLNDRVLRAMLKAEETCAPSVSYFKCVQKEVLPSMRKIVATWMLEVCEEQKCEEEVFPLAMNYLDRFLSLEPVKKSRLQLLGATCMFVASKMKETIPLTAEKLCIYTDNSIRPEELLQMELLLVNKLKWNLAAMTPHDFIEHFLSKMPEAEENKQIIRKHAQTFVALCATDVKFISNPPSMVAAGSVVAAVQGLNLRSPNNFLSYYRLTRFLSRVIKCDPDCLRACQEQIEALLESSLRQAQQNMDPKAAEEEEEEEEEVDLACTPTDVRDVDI

B1: myc-tagged full-length EBNA3C (residues 1-992) (natural protein)
chain: MESFEGQGDSRQSPDNERGDNVQTTGEHDQDPGPGPPSSGASERLVPEESYSRDQQPWGQSRGDENRGWMQRIRRRRRRRAALSGHLLDTEDNVPPWLPPHDITPYTARNIRDAACRAVKQSHLQALSNLILDSGLDTQHILCFVMAARQRLQDIRRGPLVAEGGVGWRHWLLTSPSQSWPMGYRTATLRTLTPVPNRVGADSIMLTATFGCQNAARTLNTFSATVWTPPHAGPREQERYAREAEVRFLRGKWQRRYRRIYDLIELCGSLHHIWQNLLQTEENLLDFVRFMGVMSSCNNPAVNYWFHKTIGNFKPYYPWNAPPNENPYHARRGIKEHVIQNAFRKAQIQGLSMLATGGEPRGDATSETSSDEDTGRQGSDVELESSDDELPYIDPNMEPVQQRPVMFVSRVPAKKPRKLPWPTPKTHPVKRTNVKTSDRSDKAEAQSTPERPGPSEQSSVTVEPAHPTPVEMPMVILHQPPPVPKPVPVKPTPPPSRRRRGACVVYDDDVIEVIDVETTEDSSSVSQPNKPHRKHQDGFQRSGRRQKRAAPPTVSPSDTGPPAVGPPAAGPPAAGPPAAGPPAAGPPAAGPPAAGPRILAPLSAGPPAAGPHIVTPPSARPRIMAPPVVRMFMRERQLPQSTGRKPQCFWEMRAGREITQMQQEPSSHLQSATQPTTPRPSWAPSVCALSVMDAGKAQPIESSHLSSMSPTQPISHEEQPRYEDPDAPLDLSLHPDVAAQPAPQAPYQGYQEPPAPQAPYQGYQEPPPPQAPYQGYQEPPAHGLQSSSYPGYAGPWTPRSQHPCYRHPWAPWSQDPVHGHTQGPWDPRAPHLPPQWDGSAGHGQDQVSQFPHLQSETGPPRLQLSLVPLVSSSAPSWSSPQPRAPIRPIPTRFPPPPMPLQDSMAVGCDSSGTACPSMPFASDYSQGAFTPLDINATTPKRPRVEESSHGPARCSQATAEAQEILSDNSEISVFPKDAKQTDYDASTESELD
in vitro kinase activity of flag-Cyclin D1/CDK6 immunoprecipitates toward histone H1, HEK 293T cells transfected with increasing amounts of myc-EBNA3C vector (0, 5, 15 µg): 1.6 fold
in vitro kinase activity of flag-Cyclin D1/CDK6 immunoprecipitates toward recombinant GST-pRb (residues 792-928), HEK 293T cells transfected with increasing amounts of myc-EBNA3C vector (0, 5, 15 µg): 2.3 fold

Source: article PMC3037348, “Epstein-Barr Virus Nuclear Antigen 3C Facilitates G1-S Transition by Stabilizing and Enhancing the Function of Cyclin D1” (PLoS Pathogens, 2011)
